Assay results reported in publication PMC12441119.

T1: HOIP (residues 854–1072), Q96EP0
T1 chain: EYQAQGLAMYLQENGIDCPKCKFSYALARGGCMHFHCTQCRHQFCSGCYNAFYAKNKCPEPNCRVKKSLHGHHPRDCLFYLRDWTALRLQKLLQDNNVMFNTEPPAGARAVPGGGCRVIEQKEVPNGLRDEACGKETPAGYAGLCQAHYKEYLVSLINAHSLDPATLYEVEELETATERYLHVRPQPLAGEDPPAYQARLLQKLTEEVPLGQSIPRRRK

B1: STK4 (residues 11–326) wild type K59R (protein)
chain: RRQLKKLDEDSLTKQPEEVFDVLEKLGEGSYGSVYKAIHKETGQIVAIRQVPVESDLQEIIKEISIMQQCDSPHVVKYYGSYFKNTDLWIVMEYCGAGSVSDIIRLRNKTLTEDEIATILQSTLKGLEYLHFMRKIHRDIKAGNILLNTEGHAKLADFGVAGQLTDTMAKRNTVIGTPFWMAPEVIQEIGYNCVADIWSLGITAIEMAEGKPPYADIHPMRAIFMIPTNPPPTFRKPELWSDNFTDFVKQCLVKSPEQRATATQLLQHPFVRSAKGVSILRDLINEAMDVKLKRQESQQREVDQDDEENSEEDEMD
B2: STK4 (residues 1–487) wild type K59R (protein)
chain: METVQLRNPPRRQLKKLDEDSLTKQPEEVFDVLEKLGEGSYGSVYKAIHKETGQIVAIRQVPVESDLQEIIKEISIMQQCDSPHVVKYYGSYFKNTDLWIVMEYCGAGSVSDIIRLRNKTLTEDEIATILQSTLKGLEYLHFMRKIHRDIKAGNILLNTEGHAKLADFGVAGQLTDTMAKRNTVIGTPFWMAPEVIQEIGYNCVADIWSLGITAIEMAEGKPPYADIHPMRAIFMIPTNPPPTFRKPELWSDNFTDFVKQCLVKSPEQRATATQLLQHPFVRSAKGVSILRDLINEAMDVKLKRQESQQREVDQDDEENSEEDEMDSGTMVRAVGDEMGTVRVASTMTDGANTMIEHDDTLPSQLGTMVINAEDEEEEGTMKRRDETMQPAKPSFLEYFEQKEKENQINSFGKSVPGPLKNSSDWKIPQDGDYEFLKSWTVEDLQKRLLALDPMMEQEIEEIRQKYQSKRQPILDAIEAKKRRQQNF
B3: STK4 (residues 1–326) wild type K59R (protein)
chain: METVQLRNPPRRQLKKLDEDSLTKQPEEVFDVLEKLGEGSYGSVYKAIHKETGQIVAIRQVPVESDLQEIIKEISIMQQCDSPHVVKYYGSYFKNTDLWIVMEYCGAGSVSDIIRLRNKTLTEDEIATILQSTLKGLEYLHFMRKIHRDIKAGNILLNTEGHAKLADFGVAGQLTDTMAKRNTVIGTPFWMAPEVIQEIGYNCVADIWSLGITAIEMAEGKPPYADIHPMRAIFMIPTNPPPTFRKPELWSDNFTDFVKQCLVKSPEQRATATQLLQHPFVRSAKGVSILRDLINEAMDVKLKRQESQQREVDQDDEENSEEDEMD

Target: T1, HOIP (residues 854–1072), Q96EP0
Test: ITC
Conditions: chain shown with the change
With B1 the Kd was 20.9 µM. B2 was tested, and the Kd was 115 µM. B3 showed a Kd of 28.5 µM.
